The source of these data is article PMC9034101.

For test [1], the target named is Cy5 N-terminal-labeled WWP2 (human) (UniProt O00308). In words: MST; 10 nM N-terminal Cy5-labeled WWP2, NDP52 (up to 48 uM) or OPTN (up to 60 uM) in two-fold serial dilution; 25 mM Hepes pH 7.8, 250 mM NaCl, 1 mM TCEP, 0.5 mg/ml BSA, 0.05% Tween-20; room temperature; apparent KD, quadratic model.
The next test deals with PTEN (Homo sapiens) (UniProt P60484). The note with it: cited from earlier work.
Sequence of PTEN (Homo sapiens) (P60484 2-403): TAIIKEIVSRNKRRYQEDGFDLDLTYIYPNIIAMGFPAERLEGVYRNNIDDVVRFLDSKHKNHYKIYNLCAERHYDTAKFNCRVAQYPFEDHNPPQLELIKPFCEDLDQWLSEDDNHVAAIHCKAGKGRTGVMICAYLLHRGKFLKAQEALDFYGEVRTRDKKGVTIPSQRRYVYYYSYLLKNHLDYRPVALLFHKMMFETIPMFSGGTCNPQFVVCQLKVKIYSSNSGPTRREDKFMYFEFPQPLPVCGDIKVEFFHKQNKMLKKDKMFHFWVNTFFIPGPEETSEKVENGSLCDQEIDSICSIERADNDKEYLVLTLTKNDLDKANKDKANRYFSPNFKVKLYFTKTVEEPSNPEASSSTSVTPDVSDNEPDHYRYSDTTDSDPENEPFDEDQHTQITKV

Sequence of Optineurin (Q96CV9 whole entry): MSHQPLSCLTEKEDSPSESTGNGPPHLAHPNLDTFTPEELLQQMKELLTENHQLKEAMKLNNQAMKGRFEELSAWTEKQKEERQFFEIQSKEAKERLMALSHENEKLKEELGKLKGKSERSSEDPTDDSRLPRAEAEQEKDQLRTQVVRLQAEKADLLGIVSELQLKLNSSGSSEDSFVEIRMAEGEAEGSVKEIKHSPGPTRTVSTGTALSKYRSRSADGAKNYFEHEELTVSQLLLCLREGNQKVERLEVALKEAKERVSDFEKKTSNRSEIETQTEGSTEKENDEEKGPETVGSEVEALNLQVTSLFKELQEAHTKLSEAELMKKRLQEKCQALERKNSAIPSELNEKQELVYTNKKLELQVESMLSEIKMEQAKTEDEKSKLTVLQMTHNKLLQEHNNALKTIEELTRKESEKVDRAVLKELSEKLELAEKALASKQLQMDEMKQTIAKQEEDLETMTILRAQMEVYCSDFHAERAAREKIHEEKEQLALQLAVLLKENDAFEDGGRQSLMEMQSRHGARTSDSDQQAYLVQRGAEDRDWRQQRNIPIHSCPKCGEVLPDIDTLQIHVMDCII
Sequence of WWP2 (O00308 whole entry): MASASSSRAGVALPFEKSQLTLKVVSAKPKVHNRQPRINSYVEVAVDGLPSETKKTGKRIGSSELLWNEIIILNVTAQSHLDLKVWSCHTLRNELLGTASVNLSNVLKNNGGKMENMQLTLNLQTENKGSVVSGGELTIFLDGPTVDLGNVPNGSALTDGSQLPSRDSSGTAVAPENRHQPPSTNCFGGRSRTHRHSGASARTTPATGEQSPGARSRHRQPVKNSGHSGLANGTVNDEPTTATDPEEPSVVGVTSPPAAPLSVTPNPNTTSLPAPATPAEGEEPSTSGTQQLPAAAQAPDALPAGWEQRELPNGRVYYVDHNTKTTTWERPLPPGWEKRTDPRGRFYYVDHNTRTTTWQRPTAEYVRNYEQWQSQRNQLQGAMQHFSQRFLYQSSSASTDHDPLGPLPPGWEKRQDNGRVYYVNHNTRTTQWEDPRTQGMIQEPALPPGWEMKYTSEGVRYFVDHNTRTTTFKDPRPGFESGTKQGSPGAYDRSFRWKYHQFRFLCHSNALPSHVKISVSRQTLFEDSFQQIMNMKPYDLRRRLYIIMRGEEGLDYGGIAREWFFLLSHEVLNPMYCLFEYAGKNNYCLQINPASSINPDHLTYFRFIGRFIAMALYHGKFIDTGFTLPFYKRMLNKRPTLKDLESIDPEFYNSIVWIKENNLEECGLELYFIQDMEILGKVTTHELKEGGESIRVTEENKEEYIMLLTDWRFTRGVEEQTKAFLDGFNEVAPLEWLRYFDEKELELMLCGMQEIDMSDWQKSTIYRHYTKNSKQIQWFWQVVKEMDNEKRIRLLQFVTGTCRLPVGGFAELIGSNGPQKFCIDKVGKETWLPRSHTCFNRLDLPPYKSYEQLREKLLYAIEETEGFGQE

For the substance “Optineurin (from UniProt Q96CV9 1-577) (natural protein)”, the Kd in test [1] stood at 39 µM. For WWP2 (from UniProt O00308), in the test with PTEN (Homo sapiens), the Kd was 20 µM.
